B1: Zinc finger homeobox protein 4, residues 2183 to 2238; numbered along this chain, Q86UP3 (parent)
chain: SSRTRFTDYQLRVLQDFFDTNAYPKDDEIEQLSTVLNLPTRVIVVWFQNARQKARK

Variants of: B1
Assay: abundance fitness (aPCA) (normalised: wild type 0, dead -1); higher = more abundant; growth selection in yeast, the domain comes from the species named
Conditions: Homo sapiens

Abundance fitness, by site and new letter:
R12: V -0.544 | Y -0.702
V13: A -0.012 | C -0.181 | D 0.079 | F -0.056 | G 0.047 | H 0.203 | I -0.001 | M 0.44 | N -0.064 | P -1.02 | Q 0.057 | R 0.079 | S -0.068 | T 0.013 | W -0.377 | Y 0.092
L14: A -0.793 | C -0.181 | E -1.07 | F -0.433 | G -0.876 | I -0.184 | M 0.049 | N -1.15 | P -0.931 | Q -1.02 | R -0.911 | S -0.731 | T -0.93 | V -0.206 | W -0.895 | Y -1.08
Q15: A -0.05 | D -0.072 | E -0.139 | F -0.186 | G -0.102 | I -0.141 | L -0.036 | M 0.058 | N -0.158 | P -0.708 | R -0.107 | S -0.004 | T -0.069 | V -0.095 | W -0.333 | Y -0.27
D16: A -0.065 | C -0.32 | E 0.014 | F -0.806 | G 0.093 | H -0.193 | I -0.644 | K -0.108 | L -0.602 | M -0.323 | N -0.034 | P -0.357 | Q 0.027 | R -0.083 | S 0.042 | T -0.29 | V -0.25 | W -0.838 | Y -0.458
F17: A -0.006 | D -0.591 | E -0.252 | G -0.243 | H 0.079 | I -0.135 | K -0.094 | L -0.12 | M -0.004 | N 0.049 | P -1 | Q 0.051 | R 0.02 | S -0.097 | T -0.086 | V -0.25 | Y -0.196
F18: A -0.117 | C -0.139 | D -0.887 | E -0.486 | G -0.711 | H -0.139 | I -0.16 | K -0.194 | N -0.459 | P -0.891 | Q -0.329 | R -0.222 | S -0.225 | T -0.449 | W -0.027 | Y 0.101
D19: A 0.108 | C -0.236 | E -0.235 | F -0.146 | G -0.032 | H -0.173 | I -0.234 | K -0.074 | L -0.028 | M -0.061 | N -0.087 | P -0.43 | Q -0.071 | R -0.147 | S -0.131 | T 0.164 | W -0.292 | Y -0.171
T20: A 0.108 | C 0.002 | D -0.205 | E -0.22 | F -0.503 | G -0.041 | H -0.179 | I -0.308 | K 0.133 | L -0.205 | M -0.101 | N -0.058 | P -0.57 | Q -0.196 | R 0.072 | S -0.047 | V -0.199 | W -0.158
N21: A -0.176 | C 0.346 | D -0.128 | E -0.197 | F -0.451 | G -0.387 | H -0.219 | I -0.187 | K -0.201 | L -0.488 | M -0.414 | P -0.718 | Q -0.497 | R -0.181 | S -0.2 | T -0.027 | V -0.279 | W -0.556 | Y -0.565
A22: C 0.033 | D 0.002 | E -0.016 | F -0.228 | G -0.186 | I -0.065 | K -0.116 | L -0.219 | M 0.153 | N -0.077 | P 0.133 | Q 0.005 | R 0.005 | S 0.074 | V -0.086 | W -0.169 | Y -0.309
Y23: A -0.097 | C -0.228 | D 0.313 | E 0.361 | F -0.084 | G -0.169 | I -0.219 | L 0.008 | M 0.031 | N -0.369 | P -0.345 | Q -0.173 | R 0.047 | S 0.032 | T -0.093 | V -0.039 | W -0.061
P24: A -0.272 | C -0.567 | D -0.832 | E -0.823 | F -0.792 | G -0.813 | H -0.703 | I -0.292 | K -0.817 | L -0.419 | M -0.596 | N -0.945 | Q -0.703 | R -0.657 | T -0.698 | V -0.501 | W -0.593 | Y -0.746
K25: A -0.203 | C -0.111 | D -0.177 | E -0.455 | F -0.467 | G -0.072 | L -0.233 | M -0.323 | N -0.156 | P -0.244 | R -0.047 | S -0.025 | V -0.068 | W -0.387 | Y -0.76
D26: A 0.003 | C -0.255 | E -0.163 | F -0.087 | G 0.005 | H -0.021 | I -0.427 | K 0.067 | L -0.257 | M -0.056 | N -0.114 | P -0.193 | Q -0.031 | R -0.05 | S -0.049 | T -0.071 | V -0.048 | W -0.047 | Y -0.234
D27: A -0.378 | F 0.019 | G 0.162 | H 0.048 | K -0.029 | L -0.004 | M -0.012 | N 0.001 | Q 0.08 | R -0.038 | S -0.009 | T -0.256 | V -0.375 | Y -0.171
E28: A -0.036 | C -0.18 | D 0.031 | F -0.448 | G -0.207 | H -0.188 | I -0.741 | K -0.011 | M -0.507 | N -0.287 | Q 0.061 | R -0.25 | S -0.18 | T -0.069 | V -0.34 | W -0.596 | Y -0.341
I29: A -0.266 | C -0.015 | D -0.876 | E -0.614 | F -0.152 | G -0.88 | H -0.633 | K -0.576 | L -0.023 | M -0.03 | N -0.809 | P -1.23 | Q -0.447 | R -0.692 | S -0.702 | T -0.256 | V -0.174 | W -0.352 | Y 0.004
E30: C -0.18 | D 0.08 | F -0.132 | G 0.059 | H 0.008 | I -0.221 | K -0.154 | L -0.057 | M 0.201 | N -0.166 | P -0.463 | Q 0.175 | R 0.031 | T -0.046 | V -0.119 | W -0.366 | Y -0.366
Q31: A -0.188 | C -0.221 | F -0.028 | G -0.098 | H -0.263 | I -0.316 | K 0.037 | L -0.278 | M -0.212 | N -0.444 | P -0.343 | R -0.023 | S -0.042 | T -0.252 | V -0.206 | W -0.184 | Y -0.085
L32: A -0.659 | C -0.548 | D -0.531 | E -0.723 | F -0.207 | G -0.973 | H -1.12
